In patent US20200392228A1 (PANDION OPERATIONS, published 2020):
Changes are numbered by the printed parent chain.

T1: mouse MAdCAM expressed on cells (mouse, UniProt Q61826 22-405)
T1 construct: whole, on cells
T1 sequence (looked up): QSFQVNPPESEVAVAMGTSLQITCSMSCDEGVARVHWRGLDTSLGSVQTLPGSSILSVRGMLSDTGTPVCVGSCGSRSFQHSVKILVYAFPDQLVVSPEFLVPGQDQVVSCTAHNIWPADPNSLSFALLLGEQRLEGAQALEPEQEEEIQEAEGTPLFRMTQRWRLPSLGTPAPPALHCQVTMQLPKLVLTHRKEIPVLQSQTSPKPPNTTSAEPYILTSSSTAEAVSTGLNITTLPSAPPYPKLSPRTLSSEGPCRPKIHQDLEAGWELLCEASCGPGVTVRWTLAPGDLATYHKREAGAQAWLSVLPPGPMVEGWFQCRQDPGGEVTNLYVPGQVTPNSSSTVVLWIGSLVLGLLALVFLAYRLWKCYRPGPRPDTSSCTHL

T2: human MAdCAM expressed on cells (human, UniProt Q13477 19-382)
T2 construct: whole, on cells; also called MADCAM1
T2 sequence (looked up): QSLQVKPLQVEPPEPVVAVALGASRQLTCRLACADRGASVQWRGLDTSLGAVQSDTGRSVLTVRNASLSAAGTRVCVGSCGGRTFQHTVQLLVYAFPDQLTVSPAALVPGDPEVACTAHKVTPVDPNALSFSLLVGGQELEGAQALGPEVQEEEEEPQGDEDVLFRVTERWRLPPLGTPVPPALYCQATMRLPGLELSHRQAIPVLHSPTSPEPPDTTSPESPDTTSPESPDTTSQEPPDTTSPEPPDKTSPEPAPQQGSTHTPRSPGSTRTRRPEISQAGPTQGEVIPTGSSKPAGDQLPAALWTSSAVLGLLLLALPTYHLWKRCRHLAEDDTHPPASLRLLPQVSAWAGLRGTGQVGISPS

B1: MAdCAM antibody Clone ID 27 of Table 7 (IgG) (antibody, V domains shown)
VH: EVQLLESGGGLVQPGGSLRLSCAASGFTFSSYQMSWVRQAPGKGLEWVSYISSSSTYTNYADSVKGRFTISRDNSKNTLYLQMNSLRAEDTAVYYCARANSSSWYDWYFDLWGQGTLVTVSS
VL: not shown
notes: IgG format
B2: MAdCAM antibody Clone ID 44 of Table 6 (scFv) (scFv)
scFv: EVQLVESGGGLVKPGGSLRLSCAASGFTFSSYWMSWVRQAPGKGLEWVSAIGTGGGTYYAAPVKGRFTISRDDSKNTLYLQMNSLKTEDTAVYYCAREWLVPYYGMDVWGQGTTVTVSSGGGGSGGGGSGGGGSGGGGSDIQMTQSPSSLSASVGDRVTITCRASQSISRWLAWYQQKPGKAPKLLIYGASNLQSGVPSRFSGSGSGTDFTLTISSLQPEDFATYYCQQSYSTPWTFGQGTKVEIK
B3: MAdCAM antibody Clone ID 43 of Table 6 (scFv) (scFv)
scFv: EVQLLESGGGLVQPGGSLRLSCAASGFTFDDFAMHWVRQAPGKGLEWVSGISGNGDSRYYADSVKGRFTISRDNSKNTLYLQMNSLRAEDTAVYYCARDASYGGNYGMDVWGQGTTVTVSSGGGGSGGGGSGGGGSGGGGSDIQMTQSPSSLSASVGDRVTITCQASQDIRNYLNWYQQKPGKAPKLLIYKASTLESGVPSRFSGSGSGTDFTLTISSLQPEDFATYYCQQANSFPLTFGPGTKVDIK
B4: MAdCAM antibody Clone ID 56 of Table 6 (scFv) (scFv)
scFv: EVQLLESGGGLVQPGGSLRLSCAASGFTFDDYAMHWVRQAPGKGLEWVSAISGGGEDTYYADSVKGRFTISRDNSKNTLYLQMNSLRAEDTAVYYCARDASYGGNYGMDVWGQGTTVTVSSGGGGSGGGGSGGGGSGGGGSDIQMTQSPSSLSASVGDRVTITCQASQDIRNYLNWYQQKPGKAPKLLIYKASSLESGVPSRFSGSGSGTDFTLTISSLQPEDFATYYCQQANSYPVTFGGGTKVEIK
B5: MAdCAM antibody Clone ID 50 of Table 6 (scFv) (scFv)
scFv: QVQLVQSGAEVKKPGASVKVSCKASGYTFTSYDINWVRQAPGQGLEWMGWINPNSGTTGYAQKFQGRVTMTRDTSTSTVYMELSSLRSEDTAVYYCARSPYYYYGMDVWGQGTTVTVSSGGGGSGGGGSGGGGSGGGGSDIQMTQSPSSLSASVGDRVTITCRASHFISRWVAWYQQKPGKAPKLLIYAASTLQSGVPSRFSGSGSGTDFTLTISSLQPEDFATYYCQQSYSGISFGPGTKVDIK
B6: MAdCAM antibody Clone ID 51 of Table 6 (scFv) (scFv)
scFv: EVQLLESGGGLVQPGGSLRLSCAASGFTFNNYGMNWVRQAPGKGLEWVSRINSDGSSTSYADSVKGRFTISRDNSKNTLYLQMNSLRAEDTAVYYCARGAYYYYYMDVWGQGTLVTVSSGGGGSGGGGSGGGGSGGGGSEIVMTQSPATLSVSPGERATLSCRASQSVSGSYLAWYQQKPGQAPRLLIYATSSRASGIPARFSGSGSGTEFTLTISSLQSEDFAVYYCQQYYSGLTFGQGTKVEIK
B7: MAdCAM antibody Clone ID 25 of Table 6 (scFv) (scFv)
scFv: QVQLVQSGAEVKKPGASVKVSCKASGYTLTTWYMYWVRQAPGQGLEWMGWINPNRGATNYAQKFQGRVTMTRDTSTSTVYMELSSLRSEDTAVYYCAKGDLWGAMDVWGQGTLVTVSSGGGGSGGGGSGGGGSGGGGSDIQMTQSPSSLSASVGDRVTITCRASDNIGSWLAWYQQKPGKAPKLLIYAASSLQSGVPSRFSGSGSGTDFTLTISSLQPEDFATYYCQQGYSTPPTFGQGTKVEIK
B8: MAdCAM antibody Clone ID 30 of Table 6 (scFv) (scFv)
scFv: B7 scFv
B9: MAdCAM antibody Clone ID 45 of Table 6 (scFv) (scFv)
scFv: EVQLLESGGGLVQPGGSLRLSCAASGFSVSSNYMSWVRQAPGKGLEWVAGISYDGSSKPYADSVKGRFTISRDNSKNTLYLQMNSLRAEDTAVYYCARSRGIAARPLQHWGQGTLVTVSSGGGGSGGGGSGGGGSGGGGSDIVMTQSPDSLAVSLGERATINCKSSQSVLYSSNNKNYLAWYQQKPGQPPKLLIYWASTRQSGVPDRFSGSGSGTDFTLTISSLQAEDVAVYYCHQYYGHPPTFGGGTKVEIK
B10: MAdCAM antibody Clone ID 46 of Table 6 (scFv) (scFv)
scFv: B9 scFv with W196Q
B11: MAdCAM antibody Clone ID 42 of Table 6 (scFv) (scFv)
scFv: QVQLVQSGAEVKKPGSSVKVSCKASGGTLSRYGVSWVRQAPGQGLEWMGGIIPIFGTTNYAQKFQGRVTITADESTSTAYMELSSLRSEDTAVYYCARDRVYYDSSGYPTWYFDLWGRGTLVTVSSGGGGSGGGGSGGGGSGGGGSEIVMTQSPATLSVSPGERATLSCRASQSVSSSYLAWYQQKPGQAPRLLIYGASTRATGIPARFSGSGSGTEFTLTISSLQSEDFAVYYCQQYGSSPITFGQGTKVEIK
B12: MAdCAM antibody Clone ID 40 of Table 6 (scFv) (scFv)
scFv: QVQLVQSGAEVKKPGASVKVSCKASGYTFTSYGISWVRQAPGQGLEWMGIINPRGGSTIFAQKFQGRVTMTRDTSTSTVYMELSSLRSEDTAVYYCARGTRSSGWYGWFDPWGQGTLVTVSSGGGGSGGGGSGGGGSGGGGSDIQMTQSPSSLSASVGDRVTITCRASQGIGNWLAWYQQKPGKAPKLLIYAASNLETGVPSRFSGSGSGTDFTLTISSLQPEDFATYYCQQIHSYPLTFGGGTKVEIK
B13: MAdCAM antibody Clone ID 47 of Table 6 (scFv) (scFv)
scFv: EVQLLESGGGLVQPGGSLRLSCAASGFSFSDYGMHWVRQAPGKGLEWVSAISGSGGSTYYADSVKGRFTISRDNSKNTLYLQMNSLRAEDTAVYYCARDGGWQPAAILDYWGQGTLVTVSSGGGGSGGGGSGGGGSGGGGSDIQMTQSPSSLSASVGDRVTITCRASQGISNNLNWYQQKPGKAPKLLIYDASNLETGVPSRFSGSGSGTDFTLTISSLQPEDFATYYCQQSYSTPLTFGGGTKVEIK
B14: MAdCAM antibody Clone ID 52 of Table 6 (scFv) (scFv)
scFv: EVQLLESGGGLVQPGGSLRLSCAASGFTFSNSDMNWVRQAPGKGLEWVAHIWNDGSQKYYADSVKGRFTISRDNSKNTLYLQMNSLRAEDTAVYYCARDRTDPGYSSAMDVWGQGTTVTVSSGGGGSGGGGSGGGGSGGGGSDIQMTQSPSSLSASVGDRVTITCRASQDIRNYLGWYQQKPGKAPKLLIYDASSLETGVPSRFSGSGSGTDFTLTISSLQPEDFATYYCQQATSLPLTFGGGTKVEIK
B15: MAdCAM antibody Clone ID 48 of Table 6 (scFv) (scFv)
scFv: EVQLLESGGGLVQPGGSLRLSCAASGFTFSDHGMHWVRQAPGKGLEWVSVIYGGESTYYADSVKGRFTISRDNSKNTLYLQMNSLRAEDTAVYYCARDPAVAGGGIFDYWGQGTLVTVSSGGGGSGGGGSGGGGSGGGGSDIQMTQSPSSLSASVGDRVTITCRASQGISNYLAWYQQKPGKAPKLLIYDASNLETGVPSRFSGSGSGTDFTLTISSLQPEDFATYYCQQSYSTCYTFGQGTKLEIK
B16: MAdCAM antibody Clone ID 49 of Table 6 (scFv) (scFv)
scFv: QVQLVQSGAEVKKPGASVKVSCKASGDTFTGYYIHWVRQAPGQGLEWMGWINPNSGGTNYAQKFQGRVTMTRDTSTSTVYMELSSLRSEDTAVYYCARSGLWLGSYYGMDVWGQGTLVTVSSGGGGSGGGGSGGGGSGGGGSDIQMTQSPSSLSASVGDRVTITCRASQTISIWLAWYQQKPGKAPKLLIYDASTLQSGVPSRFSGSGSGTDFTLTISSLQPEDFATYYCQQYSSYPLTFGQGTKVEIK
B17: MAdCAM antibody Clone ID 12 of Table 6 (scFv) (scFv)
scFv: QVQLVQSGAEVKKPGASVKVSCKASGYTFTGYYMHWVRQAPGQGLEWMGWIGPNSGDTNYAQKFQGRVTMTRDTSTSTVYMELSSLRSEDTAVYYCARDLDHNWYFDLWGRGTLVTVSSGGGGSGGGGSGGGGSGGGGSDIVMTQSPLSLPVTPGEPASISCRSSQSLLHSNGYNYLDWYLQKPGQSPQLLIYSSSNRAPGVPDRFSGSGSGTDFTLKISRVEAEDVGVYYCMQALHIPLTFGGGTKVEIK
B18: MAdCAM antibody Clone ID 3 of Table 6 (scFv) (scFv)
scFv: QVQLVQSGAEVKKPGASVKVSCKASGYPFIGQYLHWVRQAPGQGLEWMGIINPSGGSTSYAQKFQGRVTMTRDTSTSTVYMELSSLRSEDTAVYYCAREGRLSYGMDAWGQGTLVTVSSGGGGSGGGGSGGGGSGGGGSDIQMTQSPSSLSASVGDRVTITCRASQSISSYLAWYQQKPGKAPKLLIYGASTLESGVPSRFSGSGSGTDFTLTISSLQPEDFATYYCQQTWGPPFTFGQGTKLEIK

Target: T1, mouse MAdCAM expressed on cells
Experiment: cell binding

Question: Does B1 bind?
Answer: no binding

Target: T1, mouse MAdCAM expressed on cells
Experiment: cell binding
Remark: another data set of the same source

Question: Does B2 bind?
Answer: no binding

Question: Does B3 bind?
Answer: no binding

Question: Does B4 bind?
Answer: no binding

Question: Does B5 bind?
Answer: no binding

Question: Does B6 bind?
Answer: no binding

Question: Does B7 bind?
Answer: no binding

Question: Does B8 bind?
Answer: no binding

Question: Does B9 bind?
Answer: no binding

Question: Does B10 bind?
Answer: no binding

Question: Does B11 bind?
Answer: no binding

Question: Does B12 bind?
Answer: no binding

Question: Does B13 bind?
Answer: no binding

Question: Does B14 bind?
Answer: no binding

Question: Does B15 bind?
Answer: no binding

Question: Does B16 bind?
Answer: no binding

Question: Does B17 bind?
Answer: no binding

Question: Does B18 bind?
Answer: binds

Target: T2, human MAdCAM expressed on cells
Experiment: cell binding

Question: Does B2 bind?
Answer: binds

Question: Does B3 bind?
Answer: binds

Question: Does B5 bind?
Answer: binds

Question: Does B6 bind?
Answer: binds

Question: Does B9 bind?
Answer: binds

Question: Does B10 bind?
Answer: binds

Question: Does B11 bind?
Answer: binds

Question: Does B12 bind?
Answer: binds

Question: Does B14 bind?
Answer: binds

Question: Does B15 bind?
Answer: binds

Question: Does B16 bind?
Answer: binds

Question: Does B18 bind?
Answer: binds
